Source: paper doi:10.1101/2025.06.28.662095

Legend:
[1] = target: MtSteAΔTM (M. tuberculosis SteA truncated soluble construct, residues 12-344) (Mycobacterium tuberculosis); assay: crystal structure
[2] = target: MtSteAΔTM (M. tuberculosis SteA truncated soluble construct, residues 12-344) (Mycobacterium tuberculosis); assay: SEC-SLS

“MtSteAΔTM (M. tuberculosis SteA truncated soluble construct, residues 12-344) (domain or fragment)” showed a stoichiometry N [1] of 2 and a stoichiometry N [2] of 2.
